Assay results published in patent US20180092966A1 (CSL, published 2018).

Key:
[1] = molecular target: T1, VWF-FP R768C mutant (albumin-fused von Willebrand Factor) (human); test: covalent-FVIII ELISA over FVIII antigen ELISA
T1 construct: Stably expressed in CHO cells with furin co-transfected; also called VWF-FP mutant R768C; Cys residue at VWF aa position 768; not shown: linker between VWF and albumin, made in analogy to WO 2009/156137

[2] = molecular target: T2, VWF-FP K1116C mutant (albumin-fused von Willebrand Factor) (human); test: covalent-FVIII ELISA over FVIII antigen ELISA
T2 construct: Stably expressed in CHO cells with furin co-transfected; also called VWF-FP mutant K1116C; Cys residue at VWF aa position 1116; not shown: linker between VWF and albumin, made in analogy to WO 2009/156137

[3] = molecular target: T3, VWF-FP E1015C mutant (albumin-fused von Willebrand Factor) (human); test: covalent-FVIII ELISA over FVIII antigen ELISA
T3 construct: Stably expressed in CHO cells with furin co-transfected; also called VWF-FP mutant E1015C; Cys residue at VWF aa position 1015; not shown: linker between VWF and albumin, made in analogy to WO 2009/156137

[4] = molecular target: T4, VWF-FP N1134C mutant (albumin-fused von Willebrand Factor) (human); test: covalent-FVIII ELISA over FVIII antigen ELISA
T4 construct: Stably expressed in CHO cells with furin co-transfected; also called VWF-FP mutant N1134C; Cys residue at VWF aa position 1134; not shown: linker between VWF and albumin, made in analogy to WO 2009/156137

[5] = molecular target: T5, VWF-FP L984C mutant (albumin-fused von Willebrand Factor) (human); test: covalent-FVIII ELISA over FVIII antigen ELISA
T5 construct: Stably expressed in CHO cells with furin co-transfected; also called VWF-FP mutant L984C; Cys residue at VWF aa position 984; not shown: linker between VWF and albumin, made in analogy to WO 2009/156137

[6] = molecular target: T6, VWF-FP H817C mutant (albumin-fused von Willebrand Factor) (human); test: covalent-FVIII ELISA over FVIII antigen ELISA
T6 construct: Stably expressed in CHO cells with furin co-transfected; also called VWF-FP mutant H817C; Cys residue at VWF aa position 817; not shown: linker between VWF and albumin, made in analogy to WO 2009/156137

[7] = molecular target: T1, VWF-FP R768C mutant (albumin-fused von …); test: ELISA of co-expression supernatant: anti-VWF capture, 350 mM CaCl2 wash, anti-FVIII detection
Method: (§1) Cell culture supernatant samples (10 ml) from transient transfections were concentrated with Amicon Ultracell-30K (Millipore UFC903024; 3000 g centrifugation). FVIII covalently attached to VWF-FP in culture supernatant (concentrates) was determined by a standard ELISA. Briefly, microplates were incubated with 100 μL per well of the capture antibody (rabbit anti human VWF-IgG, Dako A0082 [Dako, Hamburg, Germany], diluted 1:2000 in buffer A [Sigma C3041, Sigma-Aldrich, Munich, Germany]) overnight at ambient temperature. After washing plates three times with buffer B (Sigma T9039), each well was incubated with 200 μL buffer C (Sigma T6789) for 1.5 hours at ambient temperature (blocking). After another three wash steps with buffer B, serial dilutions of the test sample in buffer B as well as serial dilutions of a control preparation of covalently linked FVIII-VWF-FP, (2.0-0.03 arbitrary U/ml in buffer B (we call these “arbitrary units” as they may not correspond to the standard FVIII units as determined using Standard Human Plasma); volumes per well: 100 μL) were incubated for 1.5 hours at ambient temperature. After three wash steps with buffer B, 200 μL of 350 mM CaCl₂ were added to each well and incubated for 1 hour at ambient temperature. CaCl₂ was removed (without washing) and additional 200 μl were added to each well and incubated further for 1 hour. After three wash steps with buffer B 100 μL of a 1:2 dilution in buffer B of the detection antibody (Detecting Antibody for FVIII:C, peroxidase labelled, Cedarlane CL20035K-D) were added to each well and incubated for 1 hour at ambient temperature. After three wash steps with buffer B, 100 μL of substrate solution (OUVF, Siemens Healthcare Diagnostics) were added per well and incubated for 15 minutes at ambient temperature in the dark. Addition of 100 μL undiluted stop dilution (OSFA, Siemens Healthcare Diagnostics) prepared the samples for reading in a suitable microplate reader at 450 nm wavelength. Concentrations of the test samples were then calculated using the standard curve with the control preparation.

[8] = molecular target: T2, VWF-FP K1116C mutant (albumin-fused von …); test: as above
Method: as §1

[9] = molecular target: T3, VWF-FP E1015C mutant (albumin-fused von …); test: as above
Method: as §1

[10] = molecular target: T4, VWF-FP N1134C mutant (albumin-fused von …); test: as above
Method: as §1

[11] = molecular target: T5, VWF-FP L984C mutant (albumin-fused von …); test: as above
Method: as §1

[12] = molecular target: T6, VWF-FP H817C mutant (albumin-fused von …); test: as above
Method: as §1

[13] = molecular target: T1, VWF-FP R768C mutant (albumin-fused von …); test: covalent-FVIII ELISA over FVIII activity assay
[14] = molecular target: T2, VWF-FP K1116C mutant (albumin-fused von …); test: covalent-FVIII ELISA over FVIII activity assay
[15] = molecular target: T3, VWF-FP E1015C mutant (albumin-fused von …); test: covalent-FVIII ELISA over FVIII activity assay
[16] = molecular target: T4, VWF-FP N1134C mutant (albumin-fused von …); test: covalent-FVIII ELISA over FVIII activity assay
[17] = molecular target: T5, VWF-FP L984C mutant (albumin-fused von …); test: covalent-FVIII ELISA over FVIII activity assay
[18] = molecular target: T6, VWF-FP H817C mutant (albumin-fused von …); test: covalent-FVIII ELISA over FVIII activity assay

T3 sequence (chain, as listed by the source E1015C E1015C): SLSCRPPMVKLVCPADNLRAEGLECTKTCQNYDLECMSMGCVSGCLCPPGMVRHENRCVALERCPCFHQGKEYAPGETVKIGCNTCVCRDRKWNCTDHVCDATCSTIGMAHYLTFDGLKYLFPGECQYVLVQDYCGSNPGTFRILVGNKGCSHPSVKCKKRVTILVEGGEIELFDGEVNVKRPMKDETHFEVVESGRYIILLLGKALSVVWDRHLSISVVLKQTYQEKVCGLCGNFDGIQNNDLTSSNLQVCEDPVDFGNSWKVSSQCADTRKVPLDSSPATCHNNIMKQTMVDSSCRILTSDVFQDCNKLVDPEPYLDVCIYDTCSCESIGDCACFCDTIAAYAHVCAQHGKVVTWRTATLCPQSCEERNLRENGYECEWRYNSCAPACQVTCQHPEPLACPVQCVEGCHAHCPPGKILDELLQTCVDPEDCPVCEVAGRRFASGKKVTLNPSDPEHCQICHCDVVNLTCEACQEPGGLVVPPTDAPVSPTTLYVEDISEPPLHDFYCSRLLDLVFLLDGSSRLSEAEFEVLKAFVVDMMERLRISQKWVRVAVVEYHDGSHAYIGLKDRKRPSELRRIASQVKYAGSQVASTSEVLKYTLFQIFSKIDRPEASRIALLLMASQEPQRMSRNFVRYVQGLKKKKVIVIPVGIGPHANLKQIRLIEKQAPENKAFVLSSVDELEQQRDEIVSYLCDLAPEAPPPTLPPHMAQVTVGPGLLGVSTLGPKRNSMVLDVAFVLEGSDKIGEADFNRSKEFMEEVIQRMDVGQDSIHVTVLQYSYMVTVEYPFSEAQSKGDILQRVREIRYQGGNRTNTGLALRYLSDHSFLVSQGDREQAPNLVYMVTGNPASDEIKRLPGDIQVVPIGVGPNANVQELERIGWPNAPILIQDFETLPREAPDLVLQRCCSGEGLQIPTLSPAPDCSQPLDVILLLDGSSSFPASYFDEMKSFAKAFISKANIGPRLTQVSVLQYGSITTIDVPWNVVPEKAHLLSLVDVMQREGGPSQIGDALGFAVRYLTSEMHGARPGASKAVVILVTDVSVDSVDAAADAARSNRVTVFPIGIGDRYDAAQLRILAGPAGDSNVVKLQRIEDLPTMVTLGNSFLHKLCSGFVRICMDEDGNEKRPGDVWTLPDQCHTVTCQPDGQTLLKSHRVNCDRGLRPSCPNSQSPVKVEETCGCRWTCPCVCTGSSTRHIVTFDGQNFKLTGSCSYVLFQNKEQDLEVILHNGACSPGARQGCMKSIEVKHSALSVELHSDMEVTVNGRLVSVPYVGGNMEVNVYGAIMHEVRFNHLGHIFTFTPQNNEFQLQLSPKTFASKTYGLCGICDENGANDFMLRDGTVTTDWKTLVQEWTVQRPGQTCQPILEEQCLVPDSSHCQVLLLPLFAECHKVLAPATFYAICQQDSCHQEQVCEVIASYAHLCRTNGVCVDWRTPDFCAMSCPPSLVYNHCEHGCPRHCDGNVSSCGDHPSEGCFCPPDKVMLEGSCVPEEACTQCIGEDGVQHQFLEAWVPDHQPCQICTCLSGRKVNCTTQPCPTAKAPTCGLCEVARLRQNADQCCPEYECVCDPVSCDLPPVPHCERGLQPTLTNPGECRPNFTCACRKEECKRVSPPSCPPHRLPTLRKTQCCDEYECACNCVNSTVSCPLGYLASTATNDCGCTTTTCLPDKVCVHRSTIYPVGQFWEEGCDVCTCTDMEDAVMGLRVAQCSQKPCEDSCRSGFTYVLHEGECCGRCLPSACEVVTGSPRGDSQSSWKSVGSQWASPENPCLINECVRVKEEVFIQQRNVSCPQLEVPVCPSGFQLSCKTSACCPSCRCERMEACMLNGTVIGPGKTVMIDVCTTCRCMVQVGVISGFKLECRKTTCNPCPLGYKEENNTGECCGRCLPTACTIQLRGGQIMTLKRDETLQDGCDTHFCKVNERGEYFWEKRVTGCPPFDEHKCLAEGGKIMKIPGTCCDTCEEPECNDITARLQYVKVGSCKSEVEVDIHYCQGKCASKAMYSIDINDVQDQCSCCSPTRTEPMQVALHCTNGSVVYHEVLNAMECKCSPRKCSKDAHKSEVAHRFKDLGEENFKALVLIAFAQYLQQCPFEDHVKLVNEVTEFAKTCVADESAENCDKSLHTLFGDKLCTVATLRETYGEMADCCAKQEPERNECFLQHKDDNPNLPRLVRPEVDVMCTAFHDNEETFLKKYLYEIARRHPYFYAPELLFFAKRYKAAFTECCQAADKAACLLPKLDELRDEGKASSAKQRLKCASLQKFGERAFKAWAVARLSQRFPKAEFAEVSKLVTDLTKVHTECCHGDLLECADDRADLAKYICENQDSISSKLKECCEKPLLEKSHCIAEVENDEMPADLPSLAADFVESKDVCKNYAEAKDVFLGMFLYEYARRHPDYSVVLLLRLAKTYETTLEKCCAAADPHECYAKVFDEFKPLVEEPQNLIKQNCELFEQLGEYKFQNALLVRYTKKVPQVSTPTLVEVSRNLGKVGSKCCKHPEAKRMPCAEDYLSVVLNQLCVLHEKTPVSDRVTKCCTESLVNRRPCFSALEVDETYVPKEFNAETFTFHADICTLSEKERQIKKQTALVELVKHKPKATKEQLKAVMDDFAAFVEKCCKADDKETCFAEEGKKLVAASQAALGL
T4 sequence (chain, as listed by the source N1134C N1134C): as the sequence (chain, as listed by the source E1015C E1015C) above, with C252E, N371C counted along it
T5 sequence (chain, as listed by the source L984C L984C): as the sequence (chain, as listed by the source E1015C E1015C) above, with L221C, C252E counted along it
T1 sequence (chain, as listed by the source R768C R768C): as the sequence (chain, as listed by the source E1015C E1015C) above, with R5C, C252E counted along it
T6 sequence (chain, as listed by the source H817C H817C): as the sequence (chain, as listed by the source E1015C E1015C) above, with H54C, C252E counted along it
T2 sequence (chain, as listed by the source K1116C K1116C): as the sequence (chain, as listed by the source E1015C E1015C) above, with C252E, K353C counted along it

ratio covalent FVIII/Total FVIII antigen [1]: 2.13
ratio covalent FVIII/Total FVIII antigen [2]: 1.89
ratio covalent FVIII/Total FVIII antigen [3]: 0.53
ratio covalent FVIII/Total FVIII antigen [4]: 6.11
ratio covalent FVIII/Total FVIII antigen [5]: 0.96
ratio covalent FVIII/Total FVIII antigen [6]: 0.29
covalent FVIII [7]: 2060 amU/ml
covalent FVIII [8]: 666 amU/ml
covalent FVIII [9]: 1080 amU/ml
covalent FVIII [10]: 650 amU/ml
covalent FVIII [11]: 1900 amU/ml
covalent FVIII [12]: 367 amU/ml
ratio covalent FVIII/Total FVIII activity [13]: 18.8
ratio covalent FVIII/Total FVIII activity [14]: 0.61
ratio covalent FVIII/Total FVIII activity [15]: 1.59
ratio covalent FVIII/Total FVIII activity [16]: 1.87
ratio covalent FVIII/Total FVIII activity [17]: 2.45
ratio covalent FVIII/Total FVIII activity [18]: 1.89
B1: Factor VIII SingleChain P1688C mutant (other)
chain: ATRRYYLGAVELSWDYMQSDLGELPVDARFPPRVPKSFPFNTSVVYKKTLFVEFTDHLFNIAKPRPPWMGLLGPTIQAEVYDTVVITLKNMASHPVSLHAVGVSYWKASEGAEYDDQTSQREKEDDKVFPGGSHTYVWQVLKENGPMASDPLCLTYSYLSHVDLVKDLNSGLIGALLVCREGSLAKEKTQTLHKFILLFAVFDEGKSWHSETKNSLMQDRDAASARAWPKMHTVNGYVNRSLPGLIGCHRKSVYWHVIGMGTTPEVHSIFLEGHTFLVRNHRQASLEISPITFLTAQTLLMDLGQFLLFCHISSHQHDGMEAYVKVDSCPEEPQLRMKNNEEAEDYDDDLTDSEMDVVRFDDDNSPSFIQIRSVAKKHPKTWVHYIAAEEEDWDYAPLVLAPDDRSYKSQYLNNGPQRIGRKYKKVRFMAYTDETFKTREAIQHESGILGPLLYGEVGDTLLIIFKNQASRPYNIYPHGITDVRPLYSRRLPKGVKHLKDFPILPGEIFKYKWTVTVEDGPTKSDPRCLTRYYSSFVNMERDLASGLIGPLLICYKESVDQRGNQIMSDKRNVILFSVFDENRSWYLTENIQRFLPNPAGVQLEDPEFQASNIMHSINGYVFDSLQLSVCLHEVAYWYILSIGAQTDFLSVFFSGYTFKHKMVYEDTLTLFPFSGETVFMSMENPGLWILGCHNSDFRNRGMTALLKVSSCDKNTGDYYEDSYEDISAYLLSKNNAIEPRSFSQNSRHRSTRQKQFNATTIPENTTLQSDQEEIDYDDTISVEMKKEDFDIYDEDENQSCRSFQKKTRHYFIAAVERLWDYGMSSSPHVLRNRAQSGSVPQFKKVVFQEFTDGSFTQPLYRGELNEHLGLLGPYIRAEVEDNIMVTFRNQASRPYSFYSSLISYEEDQRQGAEPRKNFVKPNETKTYFWKVQHHMAPTKDEFDCKAWAYFSDVDLEKDVHSGLIGPLLVCHTNTLNPAHGRQVTVQEFALFFTIFDETKSWYFTENMERNCRAPCNIQMEDPTFKENYRFHAINGYIMDTLPGLVMAQDQRIRWYLLSMGSNENIHSIHFSGHVFTVRKKEEYKMALYNLYPGVFETVEMLPSKAGIWRVECLIGEHLHAGMSTLFLVYSNKCQTPLGMASGHIRDFQITASGQYGQWAPKLARLHYSGSINAWSTKEPFSWIKVDLLAPMIIHGIKTQGARQKFSSLYISQFIIMYSLDGKKWQTYRGNSTGTLMVFFGNVDSSGIKHNIFNPPIIARYIRLHPTHYSIRSTLRMELMGCDLNSCSMPLGMESKAISDAQITASSYFTNMFATWSPSKARLHLQGRSNAWRPQVNNPKEWLQVDFQKTMKVTGVTTQGVKSLLTSMYVKEFLISSSQDGHQWTLFFQNGKVKVFQGNQDSFTPVVNSLDPPLLTRYLRIHPQSWVHQIALRMEVLGCEAQDLY
notes: Single-chain FVIII with partial B-domain deletion; also called FVIII-SC P1688C; Cys residue at FVIII aa position 1688
